# Measurements from US20210130436A1.
# Biological target: PD-L1 (human) (UniProt Q9NZQ7)
# Assay: cell-based or functional assay
# Sequence of PD-L1 (human) (Q9NZQ7 19-290): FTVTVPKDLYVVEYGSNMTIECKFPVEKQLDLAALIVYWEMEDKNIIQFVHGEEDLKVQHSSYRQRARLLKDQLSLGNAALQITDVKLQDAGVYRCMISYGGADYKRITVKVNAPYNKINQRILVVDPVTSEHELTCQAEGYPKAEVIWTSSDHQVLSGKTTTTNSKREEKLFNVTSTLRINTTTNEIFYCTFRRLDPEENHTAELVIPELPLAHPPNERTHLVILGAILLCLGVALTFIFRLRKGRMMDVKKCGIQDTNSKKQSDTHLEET
row,Substance,"RLU, Jurkat/IL2 + CHO/OKT3/PD-L1 Reporter Assay, CD80 Conc 5.0 nM [RLU]"
1,CD80 IgV-Fc (inert) H18A/A26N/E35D/M47L/V68M/A71G/D90G (from UniProt P33681 35-141) (Fc fusion),1050
2,CD80 IgV-Fc (inert) H18C/A26P/E35D/M47L/V68M/A71G (from UniProt P33681 35-141) (Fc fusion),936
3,CD80 IgV-Fc (inert) H18F/A26P/E35D/M47I/V68M/A71G/D90G (from UniProt P33681 35-141) (Fc fusion),926
4,CD80 IgV-Fc (inert) H18R/A26P/E35D/D46N/M47V/V68M/A71G/D90P (from UniProt P33681 35-141) (Fc fusion),972
5,CD80 IgV-Fc (inert) H18T/A26N/E35D/M47L/V68M/A71G (from UniProt P33681 35-141) (Fc fusion),1050
6,CD80 IgV-Fc (inert) H18V/A26D/E35D/M47V/V68M/A71G/D90G (from UniProt P33681 35-141) (Fc fusion),771

# Biological target: CD28 (human) (UniProt P10747)
# Assay: cell-based or functional assay
Substance,"IL-2-luciferase RLU, Jurkat + K562/OKT3/PD-L1 aAPC, 50 nM [RLU]","IL-2 release, primary T cells; K562/OKT3 (No PD-L1); 1 nM","IL-2 release, primary T cells; K562/OKT3 (No PD-L1); 10 nM","IL-2 release, primary T cells; K562/OKT3 (No PD-L1); 100 nM","Fold Increase over WT CD80-IgV-Fc, same assay, 50 nM [fold]","IL-2-luciferase RLU, Jurkat + CHO/OKT3/PD-L1 aAPC, 0.6 nM [RLU]","IL-2-luciferase RLU, Jurkat + CHO/OKT3/PD-L1 aAPC, 1.9 nM [RLU]","IL-2-luciferase RLU, Jurkat + CHO/OKT3/PD-L1 aAPC, 5.6 nM [RLU]","IL-2-luciferase RLU, Jurkat + CHO/OKT3/PD-L1 aAPC, 16.7 nM [RLU]","IL-2-luciferase RLU, Jurkat + CHO/OKT3/PD-L1 aAPC, 50 nM [RLU]"
WT CD80-ECD-Fc (effector) (from UniProt P33681 35-242) (Fc fusion),3040,–,–,–,–,–,–,–,–,–
WT IgG1 Fc Control,–,7080,6920,6260,–,–,–,–,–,–
variant CD80 IgV-Fc (inert) A26E/E35D/M43I/M47L/L85Q/K86E/R94W (Fc fusion),498,–,–,–,0.9,–,–,–,–,–
variant CD80 IgV-Fc (inert) A26E/E35D/M43T/M47L/L85Q/R94Q (Fc fusion),526,–,–,–,0.9,–,–,–,–,–
variant CD80 IgV-Fc (inert) A26E/Q33L/E35D/M47L (Fc fusion),476,–,–,–,–,–,–,–,–,–
variant CD80 IgV-Fc (inert) A26E/Q33L/E35D/M47L/L85Q (Fc fusion),416,–,–,–,0.7,–,–,–,–,–
variant CD80 IgV-Fc (inert) A26E/Q33R/E35D/M47L/L85Q (Fc fusion),500,–,–,–,0.9,–,–,–,–,–
variant CD80 IgV-Fc (inert) A26E/Q33R/E35D/M47L/L85Q/K86E (Fc fusion),569,–,–,–,–,–,–,–,–,–
variant CD80 IgV-Fc (inert) A71D/L72V/E95K (Fc fusion),–,–,–,–,–,524,530,617,641,755
variant CD80 IgV-Fc (inert) E7D/E35D/M47I/L97Q (Fc fusion),1240,–,–,–,2.2,–,–,–,–,–
variant CD80 IgV-Fc (inert) E24D/Q33L/E35D/M47V/K54R/L85Q (Fc fusion),3240,–,–,–,5.7,–,–,–,–,–
variant CD80 IgV-Fc (inert) E35D/D46E/M47V/L97Q (Fc fusion),1090,–,–,–,1.9,–,–,–,–,–
variant CD80 IgV-Fc (inert) E35D/D46V/M47I/A71G/F92V (Fc fusion),–,–,–,–,4,–,–,–,–,–
variant CD80 IgV-Fc (inert) E35D/M47I/E77A/L85Q/R94W (Fc fusion),473,–,–,–,–,–,–,–,–,–
variant CD80 IgV-Fc (inert) E35D/M47I/K54R/L85E (Fc fusion),602,–,–,–,1.1,–,–,–,–,–
variant CD80 IgV-Fc (inert) E35D/M47L/A71G/L97Q (Fc fusion),2160,–,–,–,3.8,–,–,–,–,–
variant CD80 IgV-Fc (inert) E35D/M47L/L85Q (Fc fusion),–,–,–,–,5,–,–,–,–,–
variant CD80 IgV-Fc (inert) E35D/M47V/A71G/L85M/L97Q (Fc fusion),576,–,–,–,–,–,–,–,–,–
variant CD80 IgV-Fc (inert) E35D/M47V/T62A/A71G/V83A/Y87H/L97M (Fc fusion),438,–,–,–,–,–,–,–,–,–
variant CD80 IgV-Fc (inert) H18L/V22A/E35D/M47L/N48T/L85Q (Fc fusion),2650,–,–,–,4.7,–,–,–,–,–
variant CD80 IgV-Fc (inert) H18Y/A26E/Q33L/E35D/M47L/L85Q (Fc fusion),408,–,–,–,0.7,–,–,–,–,–
variant CD80 IgV-Fc (inert) H18Y/A26T/E35D/A71D/L85Q (Fc fusion),–,–,–,–,–,628,621,795,974,1160
variant CD80 IgV-Fc (inert) H18Y/E35D/M47L (Fc fusion),2980,–,–,–,5.3,–,–,–,–,–
variant CD80 IgV-Fc (inert) H18Y/E35D/V68M/L97Q (Fc fusion),4340,–,–,–,–,–,–,–,–,–
variant CD80 IgV-Fc (inert) H18Y/Q33L/E35D/M47I (Fc fusion),486,–,–,–,0.9,–,–,–,–,–
variant CD80 IgV-Fc (inert) H18Y/V20A/Q33L/E35D/M47V/Y53F (Fc fusion),566,–,–,–,–,–,–,–,–,–

Substance,"IL-2-luciferase RLU, Jurkat + K562/OKT3/PD-L1 aAPC, 50 nM [RLU]","IL-2 release, primary T cells; K562/OKT3 (No PD-L1); 1 nM","IL-2 release, primary T cells; K562/OKT3 (No PD-L1); 10 nM","IL-2 release, primary T cells; K562/OKT3 (No PD-L1); 100 nM","Fold Increase over WT CD80-IgV-Fc, same assay, 50 nM [fold]","IL-2-luciferase RLU, Jurkat + CHO/OKT3/PD-L1 aAPC, 0.6 nM [RLU]","IL-2-luciferase RLU, Jurkat + CHO/OKT3/PD-L1 aAPC, 1.9 nM [RLU]","IL-2-luciferase RLU, Jurkat + CHO/OKT3/PD-L1 aAPC, 5.6 nM [RLU]","IL-2-luciferase RLU, Jurkat + CHO/OKT3/PD-L1 aAPC, 16.7 nM [RLU]","IL-2-luciferase RLU, Jurkat + CHO/OKT3/PD-L1 aAPC, 50 nM [RLU]"
variant CD80 IgV-Fc (inert) H18Y/Y31H/E35D/M47V/A71G/L85Q (Fc fusion),455,–,–,–,–,–,–,–,–,–
variant CD80 IgV-Fc (inert) Q27H/E35D/M47L/L85Q/R94Q/E95K (Fc fusion),513,–,–,–,0.9,–,–,–,–,–
variant CD80 IgV-Fc (inert) Q27H/Q33L/E35D/M47V/N55D/L85Q/K89N (Fc fusion),551,–,–,–,–,–,–,–,–,–
variant CD80 IgV-Fc (inert) Q33K/E35D/D46V/L85Q (Fc fusion),504,–,–,–,0.9,–,–,–,–,–
variant CD80 IgV-Fc (inert) Q33K/E35D/M47V/K89E/K93R (Fc fusion),415,–,–,–,0.7,–,–,–,–,–
variant CD80 IgV-Fc (inert) Q33L/E35D/D46E/M47I (Fc fusion),554,–,–,–,–,–,–,–,–,–
variant CD80 IgV-Fc (inert) Q33L/E35D/M43I/L85Q/R94W (Fc fusion),553,–,–,–,–,–,–,–,–,–
variant CD80 IgV-Fc (inert) Q33L/E35D/M43V/M47I/A71G (Fc fusion),473,–,–,–,–,–,–,–,–,–
variant CD80 IgV-Fc (inert) Q33L/E35D/M47I (Fc fusion),423,–,–,–,0.7,–,–,–,–,–
variant CD80 IgV-Fc (inert) Q33L/E35D/M47I/L85Q (Fc fusion),432,–,–,–,–,–,–,–,–,–
variant CD80 IgV-Fc (inert) Q33L/E35D/M47I/T62N/L85Q (Fc fusion),463,–,–,–,–,–,–,–,–,–
variant CD80 IgV-Fc (inert) Q33L/E35D/M47L/A71G/F92S (Fc fusion),394,–,–,–,0.7,–,–,–,–,–
variant CD80 IgV-Fc (inert) Q33L/E35D/M47L/V68M/L85Q/E88D (Fc fusion),572,–,–,–,–,–,–,–,–,–
variant CD80 IgV-Fc (inert) Q33L/E35D/M47V (Fc fusion),393,–,–,–,0.7,–,–,–,–,–
variant CD80 IgV-Fc (inert) Q33L/E35D/M47V/L85Q (Fc fusion),556,–,–,–,–,–,–,–,–,–
variant CD80 IgV-Fc (inert) Q33L/E35D/M47V/T79A (Fc fusion),527,–,–,–,0.9,–,–,–,–,–
variant CD80 IgV-Fc (inert) Q33L/E35D/N48K/L85Q/L97Q (Fc fusion),358,–,–,–,0.6,–,–,–,–,–
variant CD80 IgV-Fc (inert) Q33L/E35D/T41S/M43I (Fc fusion),533,–,–,–,0.9,–,–,–,–,–
variant CD80 IgV-Fc (inert) Q33L/E35D/T41S/M47V (Fc fusion),481,–,–,–,–,–,–,–,–,–
variant CD80 IgV-Fc (inert) Q33R/E35D/D46E/M47I (Fc fusion),522,–,–,–,0.9,–,–,–,–,–
variant CD80 IgV-Fc (inert) Q33R/E35D/K37E/M47V/L85Q (Fc fusion),464,–,–,–,–,–,–,–,–,–
variant CD80 IgV-Fc (inert) S15P/Q33L/E35D/M47L/L85Q (Fc fusion),468,–,–,–,–,–,–,–,–,–
variant CD80 IgV-Fc (inert) V22A/E23D/Q33L/E35D/M47V (Fc fusion),390,–,–,–,0.7,–,–,–,–,–
variant CD80 IgV-Fc (inert) V22A/E35D/V68E/A71D (Fc fusion),538,–,–,–,–,–,–,–,–,–
variant CD80 IgV-Fc (inert) V22A/R29H/E35D/D46E/M47I (Fc fusion),3310,–,–,–,5.9,–,–,–,–,–
variant CD80 IgV-Fc (inert) Y31S/E35D/M47L/T79L/E88G (Fc fusion),496,–,–,–,0.9,–,–,–,–,–

# Same assay, conditions: not given
Substance,"IL-2-luciferase RLU, Jurkat + CHO/OKT3 aAPC (no PD-L1), 5.6 nM [RLU]","IL-2-luciferase RLU, Jurkat + CHO/OKT3 aAPC (no PD-L1), 16.7 nM [RLU]","IL-2-luciferase RLU, Jurkat + CHO/OKT3 aAPC (no PD-L1), 50 nM [RLU]"
variant CD80 IgV-Fc (inert) A71D/L72V/E95K (Fc fusion),466,547,644
variant CD80 IgV-Fc (inert) H18Y/A26T/E35D/A71D/L85Q (Fc fusion),–,660,926
